Ends that are not written are not given here.
Target: human α-thrombin (human, UniProt P00734 364-622)
Assay: ELISA
Conditions: both partners purified

Binder	IC50
Ac-GDFEPIPEDAYDE (not fully specified (C-terminus)) [H6HV3_(54-66)G6 synthetic peptide]	1.4 µM
Ac-GDFEPIPEDAYDE [H6HV3_(54-66) synthetic peptide]	0.74 µM
